± gives the standard error. For part of these data: Variants at the floor of the assay were thinned out.
B1: glmS ribozyme (parent)
chain: AUAAAAGCGCCAGAACUACAGAAAUGUAGUUGACGAGGAGGAGGUUUAUCGAAUUUUCGGCGGAUGCCUCCAAA

Columns and labels:
Conditions in all cases: with glucosamine-6-phosphate
[1] = variants of: B1; test: kcat; higher = faster cleavage; RNA array
Method in brief: (§1)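 Over ~14 h at 37 °C, tiles were imaged as glucosamine-6-phosphate (40 μM to 10 mM) in HEPES/KCl/Mg(OAc)2 buffer flowed across sequenced MiSeq chips. The chips carried barcoded ribozyme variants transcribed in situ by E. coli RNA polymerase and tracked with a hybridised Cy3 probe. After normalisation to baseline and to non-cleaving reference variants, one- or two-exponential decay fits of per-tile medians gave kobs. kcat and KM followed from weighted Michaelis–Menten fits across concentrations.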

[2] = variants of: B1; test: self-cleavage kobs at 640 uM GlcN6P; higher = faster cleavage; RNA array
Method in brief: as §1

[3] = variants of: B1; test: self-cleavage kobs at 10000 uM GlcN6P; higher = faster cleavage; RNA array
Method in brief: as §1

[4] = variants of: B1; test: KM; higher = weaker cofactor use; RNA array
Method in brief: as §1

[5] = variants of: B1; test: self-cleavage kobs at 40 uM GlcN6P; higher = faster cleavage; RNA array
Method in brief: as §1

[6] = variants of: B1; test: self-cleavage kobs at 160 uM GlcN6P; higher = faster cleavage; RNA array
Method in brief: as §1

[7] = variants of: B1; test: self-cleavage kobs at 2500 uM GlcN6P; higher = faster cleavage; RNA array
Method in brief: as §1

Variant | kcat [1] | self-cleavage kobs at 640 uM GlcN6P [2] | self-cleavage kobs at 10000 uM GlcN6P [3] | KM [4] | self-cleavage kobs at 40 uM GlcN6P [5] | self-cleavage kobs at 160 uM GlcN6P [6] | self-cleavage kobs at 2500 uM GlcN6P [7]
G13U G38C | < 1e-05 s⁻¹ | < 1e-05 s⁻¹ | < 1e-05 s⁻¹ | – | – | – | –
C16U U56C | 0.00495 ± 0.00037 s⁻¹ | 0.000693 ± 0.00011 s⁻¹ | 0.00349 ± 0.00036 s⁻¹ | 4050 ± 460 µM | 4.49e-05 ± 7.9e-06 s⁻¹ | 0.00024 ± 8.3e-05 s⁻¹ | 0.00199 ± 0.00037 s⁻¹
A6C U54C | 0.000106 ± 1.8e-05 s⁻¹ | – | 8.4e-05 ± 1.4e-05 s⁻¹ | 2090 ± 1000 µM | – | – | 6.36e-05 ± 1e-05 s⁻¹
A14G C58A | 0.00151 ± 0.00049 s⁻¹ | 0.000214 ± 2.3e-05 s⁻¹ | 0.0012 ± 0.00014 s⁻¹ | 4260 ± 2000 µM | 2.97e-05 ± 1e-05 s⁻¹ | 6.76e-05 ± 3.4e-05 s⁻¹ | 0.000448 ± 6.1e-05 s⁻¹
A14U C68U | 0.00143 ± 0.00047 s⁻¹ | 0.000297 ± 3.8e-05 s⁻¹ | 0.00123 ± 0.00011 s⁻¹ | – | 2.73e-05 ± 7.7e-06 s⁻¹ | 6.57e-05 ± 1.2e-05 s⁻¹ | 0.000422 ± 6.8e-05 s⁻¹
C67U C70A | 1.69e-05 ± 4.5e-06 s⁻¹ | – | – | – | – | – | –
G13A U56C | 0.000422 ± 7.9e-06 s⁻¹ | – | 0.00021 ± 3.7e-05 s⁻¹ | – | – | – | 8.37e-05 ± 2e-05 s⁻¹
A52U U65G | 9.59e-05 ± 1.1e-06 s⁻¹ | – | 4.93e-05 ± 1.8e-05 s⁻¹ | 9460 ± 180 µM | < 1e-05 s⁻¹ | < 1e-05 s⁻¹ | –
U45G U54A | 0.00862 ± 0.0024 s⁻¹ | 0.00206 ± 0.00071 s⁻¹ | 0.00721 ± 0.0012 s⁻¹ | 2110 ± 950 µM | 0.000294 ± 6.7e-05 s⁻¹ | 0.000437 ± 0.00014 s⁻¹ | 0.00456 ± 0.0014 s⁻¹
U57C C70G | 1.91e-05 ± 3.1e-06 s⁻¹ | – | – | – | – | – | –
G40C A64G | 0.00107 ± 0.00027 s⁻¹ | – | 0.000811 ± 9.3e-05 s⁻¹ | – | – | 4.29e-05 ± 1.9e-05 s⁻¹ | 0.000837 ± 0.00017 s⁻¹
A14G G35C | < 1e-05 s⁻¹ | < 1e-05 s⁻¹ | – | – | < 1e-05 s⁻¹ | < 1e-05 s⁻¹ | < 1e-05 s⁻¹
G63A C71A | < 1e-05 s⁻¹ | – | – | – | – | – | –
G13C U69G | 5.45e-05 ± 1.1e-05 s⁻¹ | 9.44e-05 ± 2.5e-05 s⁻¹ | – | – | 3.61e-05 ± 1.3e-05 s⁻¹ | 4.33e-05 ± 1.6e-05 s⁻¹ | 4.52e-05 ± 1.2e-05 s⁻¹
G38C C70A | 1.54e-05 ± 2.7e-06 s⁻¹ | – | – | – | – | – | –
G29A U45A | 0.0109 ± 0.003 s⁻¹ | 0.00159 ± 0.00032 s⁻¹ | 0.00857 ± 0.0012 s⁻¹ | 3200 ± 1300 µM | 0.000219 ± 4.2e-05 s⁻¹ | 0.000411 ± 0.00014 s⁻¹ | 0.00447 ± 0.0012 s⁻¹
U31G G62U C71G | < 1e-05 s⁻¹ | – | – | – | – | – | –
C16G G59A C71G | 1.74e-05 ± 4.8e-06 s⁻¹ | – | – | – | – | – | –

Variant | kcat [1] | self-cleavage kobs at 640 uM GlcN6P [2] | self-cleavage kobs at 10000 uM GlcN6P [3] | KM [4] | self-cleavage kobs at 40 uM GlcN6P [5] | self-cleavage kobs at 160 uM GlcN6P [6] | self-cleavage kobs at 2500 uM GlcN6P [7]
A39G C50A | 3.27e-05 ± 5.7e-06 s⁻¹ | – | – | – | – | – | –
U45C U55G | 0.0035 ± 0.0008 s⁻¹ | 0.000502 ± 9.9e-05 s⁻¹ | 0.00283 ± 0.00033 s⁻¹ | 2770 ± 960 µM | 6.05e-05 ± 8.1e-06 s⁻¹ | – | 0.00165 ± 0.00048 s⁻¹
A39C U46C U56C | 0.000367 ± 3.7e-05 s⁻¹ | 6.45e-05 ± 1.5e-05 s⁻¹ | 0.000277 ± 5.9e-05 s⁻¹ | 2880 ± 510 µM | – | – | 0.000196 ± 5.6e-05 s⁻¹
G29U A53U | 0.00357 ± 0.00055 s⁻¹ | 0.00114 ± 0.00013 s⁻¹ | 0.00266 ± 0.00038 s⁻¹ | 1600 ± 360 µM | 8.45e-05 ± 1e-05 s⁻¹ | 0.000275 ± 4.9e-05 s⁻¹ | 0.00252 ± 0.00027 s⁻¹
A15U U30G | 0.0605 ± 0.018 s⁻¹ | 0.00977 ± 0.0011 s⁻¹ | 0.0582 ± 0.012 s⁻¹ | 3400 ± 1200 µM | 0.000777 ± 7.3e-05 s⁻¹ | 0.00242 ± 0.00032 s⁻¹ | 0.0219 ± 0.0035 s⁻¹
U30C U46C C50U U69C | 1.66e-05 ± 5e-06 s⁻¹ | – | – | – | – | – | –
C16U A42G | 0.0195 ± 0.0085 s⁻¹ | 0.00699 ± 0.0019 s⁻¹ | 0.0355 ± 0.0076 s⁻¹ | – | 0.000669 ± 0.0001 s⁻¹ | 0.00221 ± 0.00057 s⁻¹ | 0.00906 ± 0.0027 s⁻¹
A15C U54C | 0.00621 ± 0.0013 s⁻¹ | 0.00131 ± 0.00024 s⁻¹ | 0.00556 ± 0.00077 s⁻¹ | 1740 ± 510 µM | 0.000176 ± 2.3e-05 s⁻¹ | 0.000481 ± 8.7e-05 s⁻¹ | 0.00384 ± 0.00078 s⁻¹
A15C U57A | 7.96e-05 ± 6.3e-06 s⁻¹ | – | 6.22e-05 ± 8.8e-06 s⁻¹ | 2770 ± 750 µM | – | – | 3.94e-05 ± 1.2e-05 s⁻¹
C16G A39C | 0.000798 ± 6e-05 s⁻¹ | 0.000184 ± 2.9e-05 s⁻¹ | 0.000629 ± 7.2e-05 s⁻¹ | 2400 ± 310 µM | – | 4.38e-05 ± 9.6e-06 s⁻¹ | 0.000427 ± 6.6e-05 s⁻¹
A15U C16G G59C G60A C67U | < 1e-05 s⁻¹ | – | – | – | – | – | –
G29U U30G | 0.00393 ± 0.0013 s⁻¹ | 0.00131 ± 0.00023 s⁻¹ | 0.00493 ± 0.001 s⁻¹ | 1780 ± 820 µM | 9.59e-05 ± 1.7e-05 s⁻¹ | 0.000286 ± 5.6e-05 s⁻¹ | 0.00182 ± 0.00035 s⁻¹
U31C C61A | 3.08e-05 ± 1.2e-05 s⁻¹ | – | < 1e-05 s⁻¹ | – | – | – | –
U47G C71A | 0.00107 ± 0.00043 s⁻¹ | 0.000443 ± 0.0001 s⁻¹ | 0.00146 ± 0.0002 s⁻¹ | – | 5.64e-05 ± 1.4e-05 s⁻¹ | – | 0.000556 ± 0.0001 s⁻¹
U31G C50U | 2.22e-05 ± 1.4e-06 s⁻¹ | – | – | – | < 1e-05 s⁻¹ | – | –
A53G G60A | 2.61e-05 ± 9.4e-06 s⁻¹ | – | 1.88e-05 ± 8.7e-06 s⁻¹ | – | – | – | 3.68e-05 ± 1e-05 s⁻¹
C11A U30A | 0.000318 ± 4.7e-05 s⁻¹ | 8.58e-05 ± 1.7e-05 s⁻¹ | 0.000288 ± 4.4e-05 s⁻¹ | 1940 ± 600 µM | – | – | 0.000146 ± 3.4e-05 s⁻¹

— the supplement of paper PMC7125110
